The values that follow come from patent CN115057931A (GUANGZHOU YUHENG BIOTECHNOLOGY CO LTD, dated 2022).

Assay [1] deals with T1, human LAG-3, full length, on transfected cells (human, UniProt P18627 23-525).
T1 sequence: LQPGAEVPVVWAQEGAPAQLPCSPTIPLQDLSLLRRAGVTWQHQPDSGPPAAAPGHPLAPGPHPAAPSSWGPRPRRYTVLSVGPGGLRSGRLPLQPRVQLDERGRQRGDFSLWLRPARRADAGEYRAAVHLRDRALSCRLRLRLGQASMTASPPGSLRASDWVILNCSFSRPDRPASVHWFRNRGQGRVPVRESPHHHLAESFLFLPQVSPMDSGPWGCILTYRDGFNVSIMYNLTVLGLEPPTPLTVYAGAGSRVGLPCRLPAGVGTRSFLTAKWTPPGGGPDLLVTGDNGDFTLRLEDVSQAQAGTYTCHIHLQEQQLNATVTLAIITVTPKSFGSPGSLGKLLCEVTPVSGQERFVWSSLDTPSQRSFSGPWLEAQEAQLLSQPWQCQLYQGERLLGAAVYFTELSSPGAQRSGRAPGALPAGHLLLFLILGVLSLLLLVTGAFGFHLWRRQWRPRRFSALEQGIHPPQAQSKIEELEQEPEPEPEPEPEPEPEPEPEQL
The assay can be described thus: cell-based or functional assay.

The target of another assay is T2, human CD4 (human, UniProt P01730 26-390, limits assumed).
T2 construct: also called 人CD4蛋白
In words: ELISA, plate coated with 1 μg/mL human CD4. On the technique in general: In an ELISA, binding on a coated surface is turned into a signal by an enzyme label.

The target in assay [2] is T3, cynomolgus LAG-3 on 293F cells (cynomolgus monkey).
T3 construct: whole, on cells; also called 食蟹猴LAG-3; 细胞表面食蟹猴LAG-3
The assay can be described thus: FACS on 293F cells expressing cynomolgus LAG-3.

Assay [3] deals with T4, mouse LAG-3 on Flp-In-CHO cells (mouse, UniProt Q61790 24-521).
T4 construct: whole, on cells; also called 鼠LAG-3; 细胞表面小鼠LAG-3
T4 sequence (looked up): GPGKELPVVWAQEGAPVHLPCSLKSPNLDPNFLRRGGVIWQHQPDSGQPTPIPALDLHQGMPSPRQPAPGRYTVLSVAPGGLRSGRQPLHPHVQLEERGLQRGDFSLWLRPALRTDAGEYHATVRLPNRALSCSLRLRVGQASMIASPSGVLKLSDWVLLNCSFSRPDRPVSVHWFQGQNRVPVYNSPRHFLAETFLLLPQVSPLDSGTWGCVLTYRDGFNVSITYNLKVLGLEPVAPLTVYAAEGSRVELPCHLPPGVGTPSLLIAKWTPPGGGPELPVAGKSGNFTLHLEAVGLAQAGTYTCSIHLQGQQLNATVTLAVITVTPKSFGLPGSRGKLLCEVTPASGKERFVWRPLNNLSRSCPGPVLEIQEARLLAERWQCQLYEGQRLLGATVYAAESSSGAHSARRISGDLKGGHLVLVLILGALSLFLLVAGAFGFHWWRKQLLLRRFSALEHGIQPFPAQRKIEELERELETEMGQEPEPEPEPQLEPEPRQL
The assay can be described thus: FACS on Flp-In-CHO cells expressing mouse LAG-3.

B1: 3.40.19-uAb-IgG4L (antibody, V domains shown)
VH: QLQLQESGPGLVKPSETLSLTCTVSGDSISSTSYYWGWIRQPPGKGLEWIGSFYYSGSTYYNPSLKSRVTISVDTSKNQFSLKLNSVTAADTAVYYCARMQLWSYDVDVWGQGTTVTVSS
VL: QSALTQPASVSGSPGQSITISCTGTSSDVGGYDYVAWYQQHPGKVPKLMIYDVSERPSGVSNRFSGSKSGNTASLTISGLQAEDEADYYCSSYTSTTTLVVFGGGTKLSVL
notes: Fully human antibody from OMT rats; also called 3.40.19-uAb-hIgG4L
With B1, the “EC50(nM), IL-2 luciferase reporter in Jurkat cells expressing human LAG-3 with Raji cells and SEE” value in assay [1] worked out at 0.21 nM. Besides, the binding result with human CD4 is “no binding (tested: 1μg/mL)”. The EC50 – broadly, the concentration that produces a half-maximal response – in assay [2] was 3.92 nM.

B2: 1.53.3-uAb-IgG4k (antibody, V domains shown)
VH: QVQLQQWGAGLLKPSETLSLTCGVYGGSFSGYYWSWIRQPPGMGLEWIGEINHRGNTNYNPSLKSRVTISEDTSKNQFSLRLSSVTAADTAVYFCTRGEDYSDYDYYGDFWGQGTLVTVSS
VL: EIVLTQSPATLSLSQGERATLSCRASQSISSYLAWYQQKPGQAPRLLIYAASNRATGIPARFSGSGSGTDFTLTISSLEPEDFAIYYCQQRSNWPLTFGGGTKVEIK
notes: Fully human antibody from OMT rats; the other pair 15/16 goes with CDRs 7-12 in CLM-00002
Regarding B2, the “EC50(nM), IL-2 luciferase reporter in Jurkat cells expressing human LAG-3 with Raji cells and SEE” value in assay [1] was 1.07 nM. The binding result is on record as “no binding (tested: 1μg/mL)” with human CD4 and “no binding” in assay [3]. A half-maximal effect in assay [2] (EC50) was put at 4.01 nM.
